The source of these data is US20220281966A1.

The assay deals with IL-13 (human IL-13, preparation not specified) (human) (UniProt P35225). In words: cell-based or functional assay.
Chain of IL-13 (human IL-13, preparation not specified) (human) (P35225 35-146 limits assumed): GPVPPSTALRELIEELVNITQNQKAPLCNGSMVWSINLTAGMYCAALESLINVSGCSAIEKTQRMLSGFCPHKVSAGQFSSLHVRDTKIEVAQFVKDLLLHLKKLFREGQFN

B1: human IL-13 receptor α2/Fc (Fc fusion, UniProt Q14627 27-343, looked up, not shown: a dimerising Fc or GST)
chain: DTEIKVNPPQDFEIVDPGYLGYLYLQWQPPLSLDHFKECTVEYELKYRNIGSETWKTIITKNLHYKDGFDLNKGIEAKIHTLLPWQCTNGSEVQSSWAETTYWISPQGIPETKVQDMDCVYYNWQYLLCSWKPGIGVLLDTNYNLFYWYEGLDHALQCVDYIKADGQNIGCRFPYLEASDYKDFYICVNGSSENKPIRSSYFTFQLQNIVKPLPPVYLTFTRESSCEIKLKWSIPLGPIPARCFDYEIEIREDDTTLVTATVENETYTLKTTNETRQLCFVVRSKVNIYCSDDGIWSEWSDKQCWEGEDLSKKTLLR
On to B1, for which the IC50, Eotaxin-1 assay, Average came to 131 pM; the IC50, Eotaxin-1 assay, n = 1 was 128 pM; the IC50, Eotaxin-1 assay, n = 2 came out at 147 pM; the IC50, Eotaxin-1 assay, n = 3 stood at 119 pM.

B2: murine IL-13 receptor α2/FC (Fc fusion, UniProt O88786 22-334, looked up, not shown: a dimerising Fc or GST)
chain: LEIKVNPPQDFEILDPGLLGYLYLQWKPPVVIEKFKGCTLEYELKYRNVDSDSWKTIITRNLIYKDGFDLNKGIEGKIRTHLSEHCTNGSEVQSPWIEASYGISDEGSLETKIQDMKCIYYNWQYLVCSWKPGKTVYSDTNYTMFFWYEGLDHALQCADYLQHDEKNVGCKLSNLDSSDYKDFFICVNGSSKLEPIRSSYTVFQLQNIVKPLPPEFLHISVENSIDIRMKWSTPGGPIPPRCYTYEIVIREDDISWESATDKNDMKLKRRANESEDLCFFVRCKVNIYCADDGIWSEWSEEECWEGYTGPDSK
The molecule B2 returned an IC50, Eotaxin-1 assay, Average of 32 pM; an IC50, Eotaxin-1 assay, n = 1 of 29 pM; an IC50, Eotaxin-1 assay, n = 2 of 39 pM; an IC50, Eotaxin-1 assay, n = 3 of 29 pM.
